What all share (test): EMSA
Data set [1] addresses MyoD Δ1-121 (activation, C/H and basic regions deleted) (Mus musculus, UniProt P10085 122-318, del1-121).
Data set [2] addresses MyoD ΔR3 (Mus musculus, UniProt P10085 1-318, del119-121).
Data set [3] addresses MyoD Δ1-93 (activation and C/H regions deleted) (Mus musculus, UniProt P10085 94-318, del1-93).
Data set [4] has as its target MyoD ΔR2R3 (Mus musculus, UniProt P10085 1-318, del110-112;del119-121).
For data set [5], the target named is MyoD full-length (Mus musculus, UniProt P10085 1-318).
For data set [6], the target named is MyoD ΔR1R2R3 (Mus musculus, UniProt P10085 1-318, del102-104;del110-112;del119-121).
The target of data set [7] is MyoD ΔR1R3 (Mus musculus, UniProt P10085 1-318, del102-104;del119-121).
For data set [8], the target named is MyoD Δ102-114 (UniProt P10085 1-318, del102-114).
The target of data set [9] is MyoD bHLH domain (UniProt P10085 102-162).
In data set [10] the target is MyoD R111C (Mus musculus, UniProt P10085 1-318, R111C).
Data set [11] addresses MyoD Δ3-56 (activation region deleted) (Mus musculus, UniProt P10085 1-318, del3-56).

B1: E-box DNA (dsDNA)
DNA 1: TCGATCCCCCAACACCTGCTGCCTGA
DNA 2: TCAGGCAGCAGGTGTTGGGGGATCGA
As for B1, the binding result in data set [1] is “no binding”; in data set [2], “no binding”; in data set [3], “binds”; in data set [4] it was “no binding”; in data set [5] it was “binds”; in data set [6] it was “no binding”. Further, the binding result in data set [7] was “no binding”; in data set [8], “no binding”; in [9], “binds”; in data set [10], “no binding”; in [11] it was “binds”.

Values taken from article PMC2175354.
